The target of assay [1] is des-(Val^1-Gly^2)gA^–. The assay can be described thus: single-channel electrophysiology (planar lipid bilayer); DLoPC/n-decane bilayer (25 uM butylated hydroxytoluene in the bilayer-forming solution), AgA(15) and gA^-(13) together, 1 M NaCl, pH 7 (10 mM HEPES), 200 mV, 500 Hz; 25 ± 1 °C.
The target in assay [2] is des-(Val^1-Gly^2)gA^–. The experiment in a line: single-channel electrophysiology (planar lipid bilayer); DoPC (ether phospholipid)/n-decane bilayer, AgA(15) and gA^-(13) together, 1 M NaCl, pH 7 (10 mM HEPES), 200 mV, 500 Hz; 25 ± 1 °C.
Assay [3] addresses des-(Val^1-Gly^2)gA^–. The assay can be described thus: single-channel electrophysiology (planar lipid bilayer); DOPC/n-decane bilayer, AgA(15) and gA^-(13) together, 1 M NaCl, pH 7, 200 mV, 500 Hz; 25 ± 1 °C.
For assay [4], the target named is [Val^1]gA. The experiment in a line: single-channel electrophysiology (planar lipid bilayer); DOPS/n-decane bilayer, 0.1 M Na+, pH 7 (HEPES); bilayer punch method, 25 ± 1 °C, ±200 mV.
Assay [5] deals with [Val^1]gA. The experiment in a line: single-channel electrophysiology (planar lipid bilayer); DOPE:DOPC (4:1)/n-decane bilayer, 0.1 M Na+, pH 5 (Gly-Gly); bilayer punch method, 25 ± 1 °C, ±200 mV.
Assay [6] concerns the target [Val^1]gA. The assay can be described thus: single-channel electrophysiology (planar lipid bilayer); DOPS:DOPC (1:2)/n-decane bilayer, 0.1 M Na+, pH 7 (HEPES); bilayer punch method, 25 ± 1 °C, ±200 mV.
In assay [7] the target is [Val^1]gA. The assay can be described thus: single-channel electrophysiology (planar lipid bilayer); DOPS/n-decane bilayer, 0.1 M Na+, pH 8 (Na2HPO4); bilayer punch method, 25 ± 1 °C, ±200 mV; monomers in opposing monolayers dimerise to the conducting channel.
The target of assay [8] is [Val^1]gA. The assay can be described thus: single-channel electrophysiology (planar lipid bilayer); DOPE:DOPC (3:1)/n-decane bilayer, 1.0 M NaCl, unbuffered (pH 6-7); bilayer punch method, 25 ± 1 °C, 200 mV, 100 Hz.
Assay [9] has as its target [Val^1]gA. The experiment in a line: single-channel electrophysiology (planar lipid bilayer); DOPE:DOPC (1:3)/n-decane bilayer, 1.0 M NaCl, unbuffered (pH 6-7); bilayer punch method, 25 ± 1 °C, 200 mV, 100 Hz.
For assay [10], the target named is [Val^1]gA. The assay can be described thus: single-channel electrophysiology (planar lipid bilayer); DOPS/n-decane bilayer, 0.1 M Na+, pH 3 (Gly-Gly); bilayer punch method, 25 ± 1 °C, ±200 mV.
Assay [11] addresses [Val^1]gA. The experiment in a line: single-channel electrophysiology (planar lipid bilayer); DOPS/n-decane bilayer, 0.1 M Na+, pH 6 (Na2HPO4); bilayer punch method, 25 ± 1 °C, ±200 mV.
Assay [12] has as its target [Val^1]gA. The assay can be described thus: single-channel electrophysiology (planar lipid bilayer); DOPS/n-decane bilayer, 0.1 M Na+, pH 7 (Na2HPO4); bilayer punch method, 25 ± 1 °C, ±200 mV.
The target of assay [13] is [Val^1]gA. The assay can be described thus: single-channel electrophysiology (planar lipid bilayer); DOPE:DOPC (4:1)/n-decane bilayer, 0.1 M Na+, pH 3 (Gly-Gly); bilayer punch method, 25 ± 1 °C, ±200 mV.
The target in assay [14] is [Val^1]gA. The assay can be described thus: single-channel electrophysiology (planar lipid bilayer); DOPE:DOPC (4:1)/n-decane bilayer, 0.1 M Na+, pH 1; bilayer punch method, 25 ± 1 °C, ±200 mV.
Assay [15] deals with [Val^1]gA. The experiment in a line: single-channel electrophysiology (planar lipid bilayer); DOPE:DOPC (4:1)/n-decane bilayer, 0.1 M Na+, pH 0; bilayer punch method, 25 ± 1 °C, ±200 mV.
Assay [16] addresses [Val^1]gA. The assay can be described thus: single-channel electrophysiology (planar lipid bilayer); DOPS/n-decane bilayer, 0.1 M Na+, pH 4 (Gly-Gly); bilayer punch method, 25 ± 1 °C, ±200 mV.
Assay [17] addresses [Val^1]gA. The experiment in a line: single-channel electrophysiology (planar lipid bilayer); DOPC/n-decane bilayer, 1.0 M NaCl, unbuffered (pH 6-7); bilayer punch method, 25 ± 1 °C, 200 mV, 100 Hz.
Assay [18] addresses [Val^1]gA. The assay can be described thus: single-channel electrophysiology (planar lipid bilayer); DOPE:DOPC (1:1)/n-decane bilayer, 1.0 M NaCl, unbuffered (pH 6-7); bilayer punch method, 25 ± 1 °C, 200 mV, 100 Hz.
The target in assay [19] is [Val^1]gA. The experiment in a line: single-channel electrophysiology (planar lipid bilayer); DOPE:DOPC (4:1)/n-decane bilayer, 0.1 M Na+, pH 7.8 (Na2HPO4); bilayer punch method, 25 ± 1 °C, ±200 mV.
The target in assay [20] is [Val^1]gA. The experiment in a line: single-channel electrophysiology (planar lipid bilayer); DOPS/n-decane bilayer, 0.1 M Na+, pH 5 (Gly-Gly); bilayer punch method, 25 ± 1 °C, ±200 mV.
In assay [21] the target is [Val^1]gA. The experiment in a line: single-channel electrophysiology (planar lipid bilayer); DOPE:DOPC (4:1)/n-decane bilayer, 0.1 M Na+, pH 9 (Na2HPO4); bilayer punch method, 25 ± 1 °C, ±200 mV.
The target of assay [22] is [Val^1]gA. The experiment in a line: single-channel electrophysiology (planar lipid bilayer); DOPS:DOPE (1:2)/n-decane bilayer, 0.1 M Na+, pH 7 (HEPES); bilayer punch method, 25 ± 1 °C, ±200 mV.
In assay [23] the target is [Ala^1]gA. The experiment in a line: single-channel electrophysiology (planar lipid bilayer); DLoPC/n-decane bilayer (25 uM butylated hydroxytoluene in the bilayer-forming solution), AgA(15) and gA^-(13) together, 1 M NaCl, pH 7 (10 mM HEPES), 200 mV, 500 Hz; 25 ± 1 °C.
Assay [24] addresses [Ala^1]gA. The assay can be described thus: single-channel electrophysiology (planar lipid bilayer); DoPC (ether phospholipid)/n-decane bilayer, AgA(15) and gA^-(13) together, 1 M NaCl, pH 7 (10 mM HEPES), 200 mV, 500 Hz; 25 ± 1 °C.
Assay [25] deals with [Ala^1]gA. The assay can be described thus: single-channel electrophysiology (planar lipid bilayer); DOPC/n-decane bilayer, AgA(15) and gA^-(13) together, 1 M NaCl, pH 7, 200 mV, 500 Hz; 25 ± 1 °C.

des-(Val^1-Gly^2)gA^– (peptide): the channel lifetime tau (= 1/k-1, dissociation of the dimer) in assay [1] turned out to be 61 ms; in [2] it was 29 ms; in assay [3] it was 13.8 ms.
Take [Val^1]gA (peptide): the channel lifetime tau (= 1/k-1, dissociation of the dimer) in [4] worked out at 1340 ms; in assay [5] it was 80 ms; in assay [6], 470 ms; in assay [7], 1380 ms; in [8], 260 ms; in assay [9], 350 ms. In addition, the channel lifetime tau (= 1/k-1, dissociation of the dimer) was determined as 170 ms in assay [10]; 920 ms in [11]; 1320 ms in assay [12]; 70 ms in assay [13]; 90 ms in assay [14]; 220 ms in assay [15]. For the same substance, the channel lifetime tau (= 1/k-1, dissociation of the dimer) in [16] turned out to be 270 ms; in [17], 550 ms; in assay [18], 240 ms; in [19], 100 ms; in assay [20], 800 ms; in assay [21], 150 ms. The substance further showed a channel lifetime tau (= 1/k-1, dissociation of the dimer) in assay [22] of 140 ms. For the same substance, the channel lifetime tau (single experiment) in assay [5] was 65 ms; in [6], 486 ms; in assay [9], 304 ms; in assay [15] it was 235 ms; in assay [17], 563 ms; in assay [18] it was 229 ms. In addition, the channel lifetime tau (single experiment) in assay [21] amounted to 162 ms; in assay [22] it was 143 ms. The same substance displayed a fold decrease of k1 (association rate constant) against DOPC bilayers in assay [8] of 10 fold. In addition, the fold decrease of the dimerization constant KD (= k1·τ) against DOPC bilayers in assay [8] was 20 fold. Also, the fold decrease of k1 (association rate constant) against pH 7 in assay [10] was in the range of 100 to 400 fold. The same substance yielded a fold decrease of the dimerization constant KD (= k1·τ) against pH 7 in assay [10] of 1000 fold.
On to [Ala^1]gA (peptide), for which the values for the channel lifetime tau (= 1/k-1, dissociation of the dimer) in [23], in assay [24] and in assay [25] were 823 ms, 296 ms and 170 ms, respectively.
